Numbered stars: 1 amine (or outer) side, 2 acyl side, 3 side chain; on linkers, the order of the positions; unused ones are H or OH. Square brackets hold non-standard residues; d marks the D form. Side chains are listed from the residue outwards. * marks the point of attachment. C20 diacid = O=C(O)CCCCCCCCCCCCCCCCCCC(=O)*; γGlu = O=C(O)[C@H](CCC(=O)[*:2])N[*:1]; AEEA = NCCOCCOCC(=O)O; Aib = CC(C)(N)C(=O)O
T1: human GLP-2 receptor (hGLP2-R) (human, UniProt O95838)
T1 sequence: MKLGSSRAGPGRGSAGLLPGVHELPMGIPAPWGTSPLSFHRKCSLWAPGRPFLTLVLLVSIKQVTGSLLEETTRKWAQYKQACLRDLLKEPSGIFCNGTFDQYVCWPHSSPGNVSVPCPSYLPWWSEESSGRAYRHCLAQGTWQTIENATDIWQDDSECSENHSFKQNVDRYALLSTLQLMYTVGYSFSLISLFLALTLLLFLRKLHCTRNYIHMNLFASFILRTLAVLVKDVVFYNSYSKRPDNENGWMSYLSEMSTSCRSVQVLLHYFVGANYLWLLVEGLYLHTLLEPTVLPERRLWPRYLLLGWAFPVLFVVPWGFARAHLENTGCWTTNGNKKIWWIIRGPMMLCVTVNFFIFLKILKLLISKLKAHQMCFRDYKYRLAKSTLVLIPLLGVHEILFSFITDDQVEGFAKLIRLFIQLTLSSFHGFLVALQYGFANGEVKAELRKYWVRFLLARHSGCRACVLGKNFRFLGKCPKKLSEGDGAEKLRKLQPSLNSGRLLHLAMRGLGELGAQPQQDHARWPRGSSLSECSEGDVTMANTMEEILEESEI


Key:
[1] = target: human glucagon-like peptide 1 receptor (GLP-1R) (human, UniProt P43220); assay: cell-based or functional assay
[2] = target: T1, human GLP-2 receptor (hGLP2-R); assay: cell-based or functional assay

Row | Binder | EC50 GLP-1 (nM), cAMP AlphaScreen [1] [nM] | EC50 GLP-2 (nM), cAMP AlphaScreen [2] [nM]
1 | H-H[Aib]EGSFTSEK([AEEA-AEEA-γGlu-C20 diacid])ATILDEQAARDFIAWLIEHKITD-OH [Compound 42] | 0.067 | 0.33
2 | H-H[Aib]EGTFTSELATILDEQAAK([AEEA-AEEA-γGlu-C20 diacid])DFIAWLIEHKITD-OH (SMILES CC[C@H](C)[C@H](NC(=O)[C@H](Cc1ccccc1)NC(=O)[C@H](CC(=O)O)NC(=O)[C@H](CCCCNC(=O)COCCOCCNC(=O)COCCOCCNC(=O)CC[C@H](NC(=O)CCCCCCCCCCCCCCCCCCC(=O)O)C(=O)O)NC(=O)[C@H](C)NC(=O)[C@H](C)NC(=O)[C@H](CCC(N)=O)NC(=O)[C@H](CCC(=O)O)NC(=O)[C@H](CC(=O)O)NC(=O)[C@H](CC(C)C)NC(=O)[C@@H](NC(=O)[C@@H](NC(=O)[C@H](C)NC(=O)[C@H](CC(C)C)NC(=O)[C@H](CCC(=O)O)NC(=O)[C@H](CO)NC(=O)[C@@H](NC(=O)[C@H](Cc1ccccc1)NC(=O)[C@@H](NC(=O)CNC(=O)[C@H](CCC(=O)O)NC(=O)C(C)(C)NC(=O)[C@@H](N)Cc1c[nH]cn1)[C@@H](C)O)[C@@H](C)O)[C@@H](C)O)[C@@H](C)CC)C(=O)N[C@@H](C)C(=O)N[C@@H](Cc1c[nH]c2ccccc12)C(=O)N[C@@H](CC(C)C)C(=O)N[C@H](C(=O)N[C@@H](CCC(=O)O)C(=O)N[C@@H](Cc1c[nH]cn1)C(=O)N[C@@H](CCCCN)C(=O)N[C@H](C(=O)N[C@H](C(=O)N[C@@H](CC(=O)O)C(=O)O)[C@@H](C)O)[C@@H](C)CC)[C@@H](C)CC) [Compound 46] | 0.26 | 0.38
3 | H-H[Aib]EGSFTSELATILDEQAAK([AEEA-AEEA-γGlu-C20 diacid])DFIAWLIEHKITD-OH [Compound 45] | 1.4 | 0.36
4 | H-H[Aib]EGSFTSELATILDK([AEEA-AEEA-γGlu-C20 diacid])KAARDFIAWLIEHKITD-OH (SMILES CC[C@H](C)[C@H](NC(=O)[C@H](Cc1ccccc1)NC(=O)[C@H](CC(=O)O)NC(=O)[C@H](CCCNC(=N)N)NC(=O)[C@H](C)NC(=O)[C@H](C)NC(=O)[C@H](CCCCN)NC(=O)[C@H](CCCCNC(=O)COCCOCCNC(=O)COCCOCCNC(=O)CC[C@H](NC(=O)CCCCCCCCCCCCCCCCCCC(=O)O)C(=O)O)NC(=O)[C@H](CC(=O)O)NC(=O)[C@H](CC(C)C)NC(=O)[C@@H](NC(=O)[C@@H](NC(=O)[C@H](C)NC(=O)[C@H](CC(C)C)NC(=O)[C@H](CCC(=O)O)NC(=O)[C@H](CO)NC(=O)[C@@H](NC(=O)[C@H](Cc1ccccc1)NC(=O)[C@H](CO)NC(=O)CNC(=O)[C@H](CCC(=O)O)NC(=O)C(C)(C)NC(=O)[C@@H](N)Cc1c[nH]cn1)[C@@H](C)O)[C@@H](C)O)[C@@H](C)CC)C(=O)N[C@@H](C)C(=O)N[C@@H](Cc1c[nH]c2ccccc12)C(=O)N[C@@H](CC(C)C)C(=O)N[C@H](C(=O)N[C@@H](CCC(=O)O)C(=O)N[C@@H](Cc1c[nH]cn1)C(=O)N[C@@H](CCCCN)C(=O)N[C@H](C(=O)N[C@H](C(=O)N[C@@H](CC(=O)O)C(=O)O)[C@@H](C)O)[C@@H](C)CC)[C@@H](C)CC) [Compound 43] | 0.096 | 0.15
5 | H-H[Aib]EGSFTSELATILEGK([AEEA-AEEA-γGlu-C20 diacid])AARDFIAWLIEHKITD-OH (SMILES CC[C@H](C)[C@H](NC(=O)[C@H](Cc1ccccc1)NC(=O)[C@H](CC(=O)O)NC(=O)[C@H](CCCNC(=N)N)NC(=O)[C@H](C)NC(=O)[C@H](C)NC(=O)[C@H](CCCCNC(=O)COCCOCCNC(=O)COCCOCCNC(=O)CC[C@H](NC(=O)CCCCCCCCCCCCCCCCCCC(=O)O)C(=O)O)NC(=O)CNC(=O)[C@H](CCC(=O)O)NC(=O)[C@H](CC(C)C)NC(=O)[C@@H](NC(=O)[C@@H](NC(=O)[C@H](C)NC(=O)[C@H](CC(C)C)NC(=O)[C@H](CCC(=O)O)NC(=O)[C@H](CO)NC(=O)[C@@H](NC(=O)[C@H](Cc1ccccc1)NC(=O)[C@H](CO)NC(=O)CNC(=O)[C@H](CCC(=O)O)NC(=O)C(C)(C)NC(=O)[C@@H](N)Cc1c[nH]cn1)[C@@H](C)O)[C@@H](C)O)[C@@H](C)CC)C(=O)N[C@@H](C)C(=O)N[C@@H](Cc1c[nH]c2ccccc12)C(=O)N[C@@H](CC(C)C)C(=O)N[C@H](C(=O)N[C@@H](CCC(=O)O)C(=O)N[C@@H](Cc1c[nH]cn1)C(=O)N[C@@H](CCCCN)C(=O)N[C@H](C(=O)N[C@H](C(=O)N[C@@H](CC(=O)O)C(=O)O)[C@@H](C)O)[C@@H](C)CC)[C@@H](C)CC) [Compound 44] | 0.063 | 0.14
6 | H-H[Aib]EGTFTSELATILDK([γGlu-C20 diacid])QAARDFIAWLIQHKITD-OH (SMILES CC[C@H](C)[C@H](NC(=O)[C@H](Cc1ccccc1)NC(=O)[C@H](CC(=O)O)NC(=O)[C@H](CCCNC(=N)N)NC(=O)[C@H](C)NC(=O)[C@H](C)NC(=O)[C@H](CCC(N)=O)NC(=O)[C@H](CCCCNC(=O)CC[C@H](NC(=O)CCCCCCCCCCCCCCCCCCC(=O)O)C(=O)O)NC(=O)[C@H](CC(=O)O)NC(=O)[C@H](CC(C)C)NC(=O)[C@@H](NC(=O)[C@@H](NC(=O)[C@H](C)NC(=O)[C@H](CC(C)C)NC(=O)[C@H](CCC(=O)O)NC(=O)[C@H](CO)NC(=O)[C@@H](NC(=O)[C@H](Cc1ccccc1)NC(=O)[C@@H](NC(=O)CNC(=O)[C@H](CCC(=O)O)NC(=O)C(C)(C)NC(=O)[C@@H](N)Cc1c[nH]cn1)[C@@H](C)O)[C@@H](C)O)[C@@H](C)O)[C@@H](C)CC)C(=O)N[C@@H](C)C(=O)N[C@@H](Cc1c[nH]c2ccccc12)C(=O)N[C@@H](CC(C)C)C(=O)N[C@H](C(=O)N[C@@H](CCC(N)=O)C(=O)N[C@@H](Cc1c[nH]cn1)C(=O)N[C@@H](CCCCN)C(=O)N[C@H](C(=O)N[C@H](C(=O)N[C@@H](CC(=O)O)C(=O)O)[C@@H](C)O)[C@@H](C)CC)[C@@H](C)CC) [Compound 41] | 0.048 | 0.62
